Results on one protein are retold here after ChEMBL document CHEMBL1152693, “A rapid method for generation of selective Sox-based chemosensors of Ser/Thr kinases using combinatorial peptide libraries” (Bioorg Med Chem Lett, 2009).

Substrate in data set [1]: CC(=O)N[C@@H](C)C(=O)N[C@@H](CC(C)C)C(=O)N[C@@H](CCCNC(=N)N)C(=O)N[C@@H](CCCNC(=N)N)C(=O)N[C@@H](C)C(=O)N[C@@H](CO)C(=O)N[C@@H](CC(C)C)C(=O)N[C@@H](CSCc1ccc2c(S(=O)(=O)N(C)C)ccc(O)c2n1)C(=O)N[C@@H](C)C(=O)N[C@@H](C)C(N)=O
Nature of the data set: (§1) Activity of Aurora A.

Substrate in data set [2]: CC(=O)N[C@@H](C)C(=O)NCC(=O)N[C@@H](CCCNC(=N)N)C(=O)N[C@@H](CCCNC(=N)N)C(=O)N[C@@H](Cc1ccc(O)cc1)C(=O)N[C@@H](CO)C(=O)N[C@@H](CC(C)C)C(=O)N[C@@H](CSCc1ccc2c(S(=O)(=O)N(C)C)ccc(O)c2n1)C(=O)N[C@H](C)C(=O)N[C@@H](C)C(N)=O
Described as §1.

Substrate in data set [3]: CC(=O)N[C@@H](C)C(=O)N[C@@H](CC(C)C)C(=O)N[C@@H](CCCNC(=N)N)C(=O)N[C@@H](CCCNC(=N)N)C(=O)N[C@@H](Cc1ccccc1)C(=O)N[C@@H](CO)C(=O)N[C@@H](CC(C)C)C(=O)N[C@@H](CSCc1ccc2c(S(=O)(=O)N(C)C)ccc(O)c2n1)C(=O)N[C@@H](C)C(=O)N[C@@H](C)C(N)=O
The data set is described as §1.

Substrate in data set [4]: CC(=O)N[C@@H](C)C(=O)N[C@@H](CC(C)C)C(=O)N[C@@H](CCCNC(=N)N)C(=O)N[C@@H](CCCNC(=N)N)C(=O)N[C@@H](Cc1ccccc1)C(=O)N[C@@H](CO)C(=O)N[C@@H](CC(C)C)C(=O)N[C@@H](CSCc1ccc2c(S(=O)(=O)N(C)C)ccc(O)c2n1)C(=O)NCC(=O)N[C@@H](C)C(N)=O
The description is as §1.

Substrate in data set [5]: CC(=O)N[C@@H](C)C(=O)N[C@@H](CC(C)C)C(=O)N[C@@H](CCCNC(=N)N)C(=O)N[C@@H](CCCNC(=N)N)C(=O)N[C@@H](C)C(=O)N[C@@H](CO)C(=O)N[C@@H](CC(C)C)C(=O)N[C@@H](CSCc1ccc2c(S(=O)(=O)N(C)C)ccc(O)c2n1)C(=O)N[C@@H](C)C(=O)N[C@@H](C)C(N)=O
Kind of data set: (§2) Ratio of Kcat to Km for Aurora A.

Substrate in data set [6]: CC(=O)N[C@@H](C)C(=O)NCC(=O)N[C@@H](CCCNC(=N)N)C(=O)N[C@@H](CCCNC(=N)N)C(=O)N[C@@H](Cc1ccc(O)cc1)C(=O)N[C@@H](CO)C(=O)N[C@@H](CC(C)C)C(=O)N[C@@H](CSCc1ccc2c(S(=O)(=O)N(C)C)ccc(O)c2n1)C(=O)N[C@H](C)C(=O)N[C@@H](C)C(N)=O
The description is as §2.

Substrate in data set [7]: CC(=O)N[C@@H](C)C(=O)N[C@@H](CC(C)C)C(=O)N[C@@H](CCCNC(=N)N)C(=O)N[C@@H](CCCNC(=N)N)C(=O)N[C@@H](Cc1ccccc1)C(=O)N[C@@H](CO)C(=O)N[C@@H](CC(C)C)C(=O)N[C@@H](CSCc1ccc2c(S(=O)(=O)N(C)C)ccc(O)c2n1)C(=O)N[C@@H](C)C(=O)N[C@@H](C)C(N)=O
The data set is described as §2.

Substrate in data set [8]: CC(=O)N[C@@H](C)C(=O)N[C@@H](CC(C)C)C(=O)N[C@@H](CCCNC(=N)N)C(=O)N[C@@H](CCCNC(=N)N)C(=O)N[C@@H](Cc1ccccc1)C(=O)N[C@@H](CO)C(=O)N[C@@H](CC(C)C)C(=O)N[C@@H](CSCc1ccc2c(S(=O)(=O)N(C)C)ccc(O)c2n1)C(=O)NCC(=O)N[C@@H](C)C(N)=O
The description is as §2.

B1: Aurora kinase A (Homo sapiens), O14965 (protein)
chain: MDRSKENCISGPVKATAPVGGPKRVLVTQQFPCQNPLPVNSGQAQRVLCPSNSSQRIPLQAQKLVSSHKPVQNQKQKQLQATSVPHPVSRPLNNTQKSKQPLPSAPENNPEEELASKQKNEESKKRQWALEDFEIGRPLGKGKFGNVYLAREKQSKFILALKVLFKAQLEKAGVEHQLRREVEIQSHLRHPNILRLYGYFHDATRVYLILEYAPLGTVYRELQKLSKFDEQRTATYITELANALSYCHSKRVIHRDIKPENLLLGSAGELKIADFGWSVHAPSSRRTTLCGTLDYLPPEMIEGRMHDEKVDLWSLGVLCYEFLVGKPPFEANTYQETYKRISRVEFTFPDFVTEGARDLISRLLKHNPSQRPMLREVLEHPWITANSSKPSNCQNKESASKQS
In the case of B1, the Michaelis-Menten constant (Km) in data set [1] is 298 µM; in data set [2], 65 µM; in data set [3] it was 152 µM; in data set [4] it was 57.1 µM. Also, the Vmax in data set [1] was found to be 1.7 µmol/min/mg; in data set [2], 1.8 µmol/min/mg; in data set [3], 2.6 µmol/min/mg; in data set [4], 2.2 µmol/min/mg. The kcat/Km worked out at 1 µM⁻¹ min⁻¹ in data set [5], 5 µM⁻¹ min⁻¹ in data set [6], 3 µM⁻¹ min⁻¹ in data set [7] and 7 µM⁻¹ min⁻¹ in data set [8].

One may read the Km as the concentration of substrate that gives half-maximal velocity. What is called Vmax is the top rate of the reaction or transport when substrate is in excess. The kcat/Km is the turnover number divided by the Michaelis constant.
